Test results as given in patent US20080038248A1 (published 2008).

B1: soluble recombinant extracellular domain of RAET1G, 6-Histidine N-terminal fusion (ligand, human)
chain: HHHHHHGLADPHSLCYDITVIPKFRPGPRWCAVQGQVDEKTFLHYDCGSKTVTPVSPLGKKLNVTTAWKAQNPVLREVVDILTEQLLDIQLENYIPKEPLTLQARMSCEQKAEGHGSGSWQLSFDGQIFLLFDSENRMWTTVHPGARKMKEKWENDKDMTMSFHYISMGDCTGWLEDFLMGMDSTLEPSAGAPPTMSSGTAQPR
notes: extracellular domain; also called 6-His tagged recombinant RAET1G
B2: UL16 Fc fusion (Fc fusion)
chain: VDLGSKSSNSTCRLNVTELASIHPGETWTLHGMCISICYYENVTEDEIIGVAFTWQHNESVVDLWLYQNDTVIRNFSDITTNILQDGLKMRTVPVTKLYTSRMVTNLTVGRYDCLRCENGTTKIIERLYVRLGSLYPRPPGSGLAKHPSVSADEELSA
notes: not shown: human IgG1 CH2-CH3, C-terminal to UL16 (vector SignalpIgplus)
B3: NKG2D-Fc fusion protein (Fc fusion, human, UniProt P26718 73-216, looked up)
chain: IWSAVFLNSLFNQEVQIPLTESYCGPCPKNWICYKNNCYQFFDESKNWYESQASCMSQNASLLKVYSKEDQDLLKLVKSYHWMGLVHIPTNGSWQWEDGSILSPNLLTIIEMQKGDCALYASSFKGYIENCSTPNTYICMQRTV
notes: Produced in 293T cells, purified on Protein A. 'The fusion was C-terminal to human IgG1 hinge-CH2-CH3 domains'; also called recombinant soluble Fc fusion protein of NKG2D; not shown: human IgG1 hinge-CH2-CH3 domains, N-terminal to NKG2D (in pcDNA3.0)

Assays:
NKG2D-Fc fusion protein = target: B3; experiment: SPR (BIACore 2000); RAET1G against ULBP2 on NKG2D-Fc
Protocol: (§1) SPR was carried out on a BIACore2000 machine. Running buffer, sensor chips and surface coupling reagents were from BIACore. Anti Human IgG (Dako) was coupled to a CM5 surface using NHS/EDC chemistry. […] Surface regeneration was using 5 μl of 10 mM HCl. […] Kinetic analysis was performed using BIAEvaluation 3.1 software.

UL16 Fc fusion = target: B2; experiment: SPR (BIACore 2000); kon on UL16-Fc against kon on NKG2D-Fc
[1] = target: T1, soluble recombinant extracellular domain of ULBP1, 6-Histidine N-terminal fusion (human, UniProt Q9BZM6 26-216, limits assumed); experiment: SPR (BIACore 2000), UL16-Fc captured on anti-human IgG, ULBP1 as analyte; joint global fit
T1 construct: extracellular domain
T1 sequence: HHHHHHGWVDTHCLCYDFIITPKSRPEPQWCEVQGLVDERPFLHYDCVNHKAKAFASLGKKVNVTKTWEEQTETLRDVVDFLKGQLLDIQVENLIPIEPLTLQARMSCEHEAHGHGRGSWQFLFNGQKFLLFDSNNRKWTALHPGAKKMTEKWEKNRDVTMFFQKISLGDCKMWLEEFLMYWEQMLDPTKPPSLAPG

[2] = target: T2, soluble recombinant extracellular domain of RAET1E, 6-Histidine N-terminal fusion (human, UniProt Q8TD07 31-225); experiment: SPR (BIACore 2000), UL16-Fc captured on anti-human IgG, RAET1E as analyte; joint global fit
T2 construct: extracellular domain
T2 sequence: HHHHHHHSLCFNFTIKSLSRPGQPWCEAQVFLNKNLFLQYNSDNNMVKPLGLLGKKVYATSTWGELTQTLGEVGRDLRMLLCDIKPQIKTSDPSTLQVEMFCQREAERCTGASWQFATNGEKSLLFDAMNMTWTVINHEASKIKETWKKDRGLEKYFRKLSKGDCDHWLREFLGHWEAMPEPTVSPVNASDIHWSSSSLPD

[3] = target: B1; experiment: SPR (BIACore 2000), UL16-Fc captured on anti-human IgG, RAET1G as analyte; joint global fit
[4] = target: T1, soluble recombinant extracellular …; experiment: SPR (BIACore 2000), UL16-Fc captured on anti-human IgG, ULBP1 as analyte; derived from joint fit
[5] = target: T2, soluble recombinant extracellular …; experiment: SPR (BIACore 2000), UL16-Fc captured on anti-human IgG, RAET1E as analyte; derived from joint fit
[6] = target: B1; experiment: SPR (BIACore 2000), UL16-Fc captured on anti-human IgG, RAET1G as analyte; derived from joint fit
[7] = target: T1, soluble recombinant extracellular …; experiment: SPR (BIACore 2000), NKG2D-Fc captured on anti-human IgG, ULBP1 as analyte; joint global fit
Protocol: as §1

[8] = target: T3, soluble recombinant extracellular domain of ULBP2, 6-Histidine N-terminal fusion (human, UniProt Q9BZM5 26-217, limits assumed); experiment: SPR (BIACore 2000), NKG2D-Fc captured on anti-human IgG, ULBP2 as analyte; joint global fit
T3 construct: extracellular domain
T3 sequence: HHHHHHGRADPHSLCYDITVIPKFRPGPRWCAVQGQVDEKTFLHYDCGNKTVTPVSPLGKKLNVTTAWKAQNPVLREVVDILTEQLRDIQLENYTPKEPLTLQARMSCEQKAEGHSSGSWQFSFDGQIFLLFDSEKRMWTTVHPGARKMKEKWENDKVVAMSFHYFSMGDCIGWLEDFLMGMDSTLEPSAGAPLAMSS
Protocol: as §1

[9] = target: T4, soluble recombinant extracellular domain of ULBP3, 6-Histidine N-terminal fusion (human, UniProt Q9BZM4 30-217, limits assumed); experiment: SPR (BIACore 2000), NKG2D-Fc captured on anti-human IgG, ULBP3 as analyte; joint global fit
T4 construct: extracellular domain
T4 sequence: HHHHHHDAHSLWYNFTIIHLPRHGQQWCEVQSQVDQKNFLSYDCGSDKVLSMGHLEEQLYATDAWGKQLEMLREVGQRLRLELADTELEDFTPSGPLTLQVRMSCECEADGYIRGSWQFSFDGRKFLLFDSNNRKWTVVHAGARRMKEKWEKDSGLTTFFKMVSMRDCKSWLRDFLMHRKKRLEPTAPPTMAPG
Protocol: as §1

[10] = target: T2, soluble recombinant extracellular …; experiment: SPR (BIACore 2000), NKG2D-Fc captured on anti-human IgG, RAET1E as analyte; joint global fit
Protocol: as §1

[11] = target: B1; experiment: SPR (BIACore 2000), NKG2D-Fc captured on anti-human IgG, RAET1G as analyte; joint global fit
Protocol: as §1

[12] = target: T1, soluble recombinant extracellular …; experiment: SPR (BIACore 2000), NKG2D-Fc captured on anti-human IgG, ULBP1 as analyte; separate off-rate fit
Protocol: as §1

[13] = target: T3, soluble recombinant extracellular …; experiment: SPR (BIACore 2000), NKG2D-Fc captured on anti-human IgG, ULBP2 as analyte; separate off-rate fit
Protocol: as §1

[14] = target: T4, soluble recombinant extracellular …; experiment: SPR (BIACore 2000), NKG2D-Fc captured on anti-human IgG, ULBP3 as analyte; separate off-rate fit
Protocol: as §1

[15] = target: T2, soluble recombinant extracellular …; experiment: SPR (BIACore 2000), NKG2D-Fc captured on anti-human IgG, RAET1E as analyte; separate off-rate fit
Protocol: as §1

[16] = target: B1; experiment: SPR (BIACore 2000), NKG2D-Fc captured on anti-human IgG, RAET1G as analyte; separate off-rate fit
Protocol: as §1

[17] = target: T1, soluble recombinant extracellular …; experiment: SPR (BIACore 2000), NKG2D-Fc captured on anti-human IgG, ULBP1 as analyte; derived from joint fit
Protocol: as §1

[18] = target: T3, soluble recombinant extracellular …; experiment: SPR (BIACore 2000), NKG2D-Fc captured on anti-human IgG, ULBP2 as analyte; derived from joint fit
Protocol: as §1

[19] = target: T4, soluble recombinant extracellular …; experiment: SPR (BIACore 2000), NKG2D-Fc captured on anti-human IgG, ULBP3 as analyte; derived from joint fit
Protocol: as §1

[20] = target: T2, soluble recombinant extracellular …; experiment: SPR (BIACore 2000), NKG2D-Fc captured on anti-human IgG, RAET1E as analyte; derived from joint fit
Protocol: as §1

[21] = target: B1; experiment: SPR (BIACore 2000), NKG2D-Fc captured on anti-human IgG, RAET1G as analyte; derived from joint fit
Protocol: as §1

Binder: B1
- fold difference in affinity against ULBP2 (NKG2D-Fc fusion protein): 20 fold
- fold faster association rate for UL16 than for NKG2D (UL16 Fc fusion): 10 fold

Binder: B2
- koff [1]: 0.000597 s⁻¹
- kon [1]: 2460 M⁻¹ s⁻¹
- koff [2]: 0.00595 s⁻¹
- kon [2]: 11800 M⁻¹ s⁻¹
- koff [3]: 0.00871 s⁻¹
- kon [3]: 115000 M⁻¹ s⁻¹
- Kd [4]: 243 nM
- Kd [5]: 504 nM
- Kd [6]: 75.6 nM

Binder: B3
- koff [7]: 0.0073 s⁻¹
- kon [7]: 4360 M⁻¹ s⁻¹
- koff [8]: 0.063 s⁻¹
- koff [9]: 0.00537 s⁻¹
- kon [9]: 2350 M⁻¹ s⁻¹
- koff [10]: 0.00292 s⁻¹
- kon [10]: 74900 M⁻¹ s⁻¹
- koff [11]: 0.00374 s⁻¹
- kon [11]: 10500 M⁻¹ s⁻¹
- koff [12]: 0.0069 s⁻¹
- koff [13]: 0.0336 s⁻¹
- koff [14]: 0.005 s⁻¹
- koff [15]: 0.005 s⁻¹
- koff [16]: 0.003 s⁻¹
- Kd [17]: 1680 nM
- Kd [18]: 7160 nM
- Kd [19]: 2290 nM
- Kd [20]: 39 nM
- Kd [21]: 356 nM
